This is an account of results in article PMC4981888.

The target in this experiment is GST-SVV (UniProt O15392). Put plainly: native gel or EMSA; 0.5 μg recombinant protein in native sample buffer (no SDS, no β-mercaptoethanol) on a 15% or 6% native polyacrylamide gel; Western blot with anti-SVV or anti-cortactin; monomer and dimer bands. (In general: Mobility shift assays separate free from complexed probe on a gel.)

The stoichiometry N is a count of units in the complex or per binding partner.

For GST-SVV (from UniProt O15392 1-142), the stoichiometry N was determined as 2.
